For data set [1], the target named is T1, T1BP2.
T1 chain: SAYAATVRGPLSSAS

Data set [2] has as its target T2, human topoisomerase I (human, UniProt P11387 1-765, limits assumed).
T2 construct: also called top1; top 1
T2 sequence (looked up): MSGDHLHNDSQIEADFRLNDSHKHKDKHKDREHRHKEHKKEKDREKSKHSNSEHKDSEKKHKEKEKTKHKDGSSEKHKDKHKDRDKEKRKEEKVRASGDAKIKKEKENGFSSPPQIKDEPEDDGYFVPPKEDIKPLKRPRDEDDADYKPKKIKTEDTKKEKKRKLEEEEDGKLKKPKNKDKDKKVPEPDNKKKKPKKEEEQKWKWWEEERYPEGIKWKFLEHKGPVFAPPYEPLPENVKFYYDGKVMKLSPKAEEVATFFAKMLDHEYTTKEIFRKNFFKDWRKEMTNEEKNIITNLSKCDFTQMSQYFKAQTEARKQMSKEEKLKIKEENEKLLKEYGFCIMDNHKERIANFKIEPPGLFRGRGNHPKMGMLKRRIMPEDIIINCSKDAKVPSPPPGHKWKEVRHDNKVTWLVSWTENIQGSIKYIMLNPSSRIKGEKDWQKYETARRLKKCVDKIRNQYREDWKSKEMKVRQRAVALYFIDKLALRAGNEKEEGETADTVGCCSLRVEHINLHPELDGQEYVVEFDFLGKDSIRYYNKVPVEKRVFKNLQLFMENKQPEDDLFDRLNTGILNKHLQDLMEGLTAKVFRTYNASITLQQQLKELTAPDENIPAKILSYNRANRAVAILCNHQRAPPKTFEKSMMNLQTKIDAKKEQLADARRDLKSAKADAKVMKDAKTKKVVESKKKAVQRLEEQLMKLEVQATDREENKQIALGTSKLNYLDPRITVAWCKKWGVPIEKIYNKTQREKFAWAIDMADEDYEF
Briefly: SPR (BIAcore), 100 kDa top1 applied at 1, 2.5, 5, 10 and 20 nM to the CPP4 flow cell, global fit [right panel]. As to the method: (§1) Top 1 was applied to flow cells in 1, 2.5, 5, 10 and 20 nM concentrations. The overlaying curves represent the actual data for a given concentration of top 1 and the “fit” curves. Data were fit using the BIAeval 3000 global fitting software.
A general note: Surface plasmon resonance follows binding to a sensor surface in real time, without labels.

Data set [3] deals with T2, human topoisomerase I. The experiment in a line: phage display biopanning against top1-DNA-9AC, analytical titering against top1. As to the method:
Phage display: Phage display was performed as described by Smith (Parmley 1989). Briefly, top1 was first biotinylated with a biotin derivative containing a spacer engineered to reduced steric interference (Pierce EZ-Link Biotin-PEO-Amine). The reaction was performed at a 5:1 molar ratio of biotin:top1 in 10 mM HEPES (pH 8.2) buffered 500 mM NaCl. The unreacted biotin was removed by gel filtration in a Biospin 30 column (BioRad) and biotinylated top1 was assayed for activity using a pull down method with streptavidin coated beads. The biotinylated top1 maintained catalytic activity. For phage display, 20 μg biotinylated top1 was reacted with a mixture of pBR322 and 9AC and 20 μg was applied to a 30 mm plastic petri dish coated with 10 μg of neutravidin (Pierce). The dish was then blocked with 3.0% bovine serum albumin, and 10 μl of a 10⁹/μl titer phage library in 100 μl TBS-0.05% Tween was added. Phage were allowed to associate with gentle rocking for 2 hours at 4° C., and then washed repeatedly over 2 hours at 4° C. with buffered saline containing 0.1% Tween. […]
Analytical titering: Ten μl of amplified phage clones (approximately 10¹² cfu) were incubated in 50 nM top1 for one hour at 4° C. on a rocker. […] Competent E. coli were added directly to the washed plates and the output assessed by counting a 10⁻⁶ dilution of the culture on tetracycline plates (FIG. 1). […]

The target of data set [4] is T2, human topoisomerase I. Briefly: fluorescence polarization, human placental 91 kDa top1 titrated into 500 nM fluorescein-labeled T1BP1; the concentration is that of top1.
Data set [5] deals with T2, human topoisomerase I. Briefly: SPR (BIAcore), T1BP2 on the chip, top1 as analyte, Langmuir model [cont'd) B]. As to the method: These top1 experiments were evaluated with BIAevaluation Software 3.1 using Langmuir Kinetics to model the interaction. The accuracy of the fit to the model is illustrated by dashed lines representing actual data and narrow lines representing the fitted curves.
(§2) Binding analysis: The binding analysis of the peptides was performed on a BIAcore 2000 instrument. A four channel CM5 sensor chip was derivatized with three top1 binding peptides (T1BPs 1, 2 and 4) and a control surface left blank. Catalytically active top1 was used as the mobile or analyte phase and diluted in 150 mM NaCl, 30 mM HEPES, 0.05% P20 and injected at various concentrations (8.0, 4.0, 2.0, 1.0 and 0.4 nM) through the instrument's microfluidics sample handling system at a flow rate of 30 μl/minute. With each injection of a particular concentration of top1, association and dissociation data for three peptides were generated. Binding constants were determined using the BIAevaluation 2.1 software.

Data set [6] concerns the target T2, human topoisomerase I. Briefly: SPR (BIAcore 2000), T1BP2 on CM5 chip, top1 as analyte, Langmuir model. As to the method: as §2
T1BP2 affinity for top1: T1BP2 had remarkable affinity for top1 when assayed by surface plasmon resonance (FIG. 2a).

For data set [7], the target named is T2, human topoisomerase I. Briefly: SPR (BIAcore), 100 kDa top1 applied at 1, 2.5, 5, 10 and 20 nM to the CPP1 flow cell, global fit [left panel]. As to the method:
as §1

For orientation: EC50 (read off the curve) means the concentration at which the effect is half-maximal. A word on the koff: it is the rate constant with which the complex falls apart. A word on the kon: it is the rate constant with which the complex forms. The low end stands for slow association, the high end for fast association. Broadly, the Kd is the constant that tells how readily two partners part at equilibrium. A lower Kd goes with a tighter complex.

B1: human topoisomerase I (protein)
chain: MSGDHLHNDSQIEADFRLNDSHKHKDKHKDREHRHKEHKKEKDREKSKHSNSEHKDSEKKHKEKEKTKHKDGSSEKHKDKHKDRDKEKRKEEKVRASGDAKIKKEKENGFSSPPQIKDEPEDDGYFVPPKEDIKPLKRPRDEDDADYKPKKIKTEDTKKEKKRKLEEEEDGKLKKPKNKDKDKKVPEPDNKKKKPKKEEEQKWKWWEEERYPEGIKWKFLEHKGPVFAPPYEPLPENVKFYYDGKVMKLSPKAEEVATFFAKMLDHEYTTKEIFRKNFFKDWRKEMTNEEKNIITNLSKCDFTQMSQYFKAQTEARKQMSKEEKLKIKEENEKLLKEYGFCIMDNHKERIANFKIEPPGLFRGRGNHPKMGMLKRRIMPEDIIINCSKDAKVPSPPPGHKWKEVRHDNKVTWLVSWTENIQGSIKYIMLNPSSRIKGEKDWQKYETARRLKKCVDKIRNQYREDWKSKEMKVRQRAVALYFIDKLALRAGNEKEEGETADTVGCCSLRVEHINLHPELDGQEYVVEFDFLGKDSIRYYNKVPVEKRVFKNLQLFMENKQPEDDLFDRLNTGILNKHLQDLMEGLTAKVFRTYNASITLQQQLKELTAPDENIPAKILSYNRANRAVAILCNHQRAPPKTFEKSMMNLQTKIDAKKEQLADARRDLKSAKADAKVMKDAKTKKVVESKKKAVQRLEEQLMKLEVQATDREENKQIALGTSKLNYLDPRITVAWCKKWGVPIEKIYNKTQREKFAWAIDMADEDYEF
In the case of B1, the “cleavage complex formation (top1-DNA-9AC cleavage assay)” value in data set [1] is given as “T1BP2 increased cleavage complex formation approximately 50%”.
On to DRVPLVHVIFNSFGY (also called CPP4) [T1BP3], for which the binding result in data set [2] is “binds”.

B2: T1BP5 (peptide)
peptide: EGQFTFPRGASE
notes: 12-mer, truncated due to a stop codon; also called CPP6; EGQFTFPRGASE
For the molecule B2, the binding result in data set [3] is given as “binds”.
On to SSQVVGVPQLMQSSP (also called CPP2) [T1BP1], for which the “EC50 (read off the curve)” value in data set [4] was around 100 nM.

B3: T1BP2 (peptide)
peptide: SAYAATVRGPLSSAS
notes: Coupled to a CM5 chip for SPR; also called T1PB2; CPP3
As to B3, in data set [5], the Ka turned out to be 1.5e+06 M⁻¹, the “kd (s-1) (observed) at [Top1] 0.4 nM” value was 0.0028 s⁻¹, the “kd (s-1) (observed) at [Top1] 1.0 nM” value worked out at 0.0028 s⁻¹ and the “kd (s-1) (observed) at [Top1] 2.0 nM” value stood at 0.00281 s⁻¹. Besides, in data set [5], the “kd (s-1) (observed) at [Top1] 4.0 nM” value was found to be 0.00282 s⁻¹, the “kd (s-1) (observed) at [Top1] 8.0 nM” value was found to be 0.00283 s⁻¹, the koff is 0.0028 s⁻¹ and the kon turned out to be 4210 M⁻¹ s⁻¹. Besides, in data set [6], the Kd came out at 665 nM.
For RNQGPVKMVFPIAPS (also called CPP5) [T1BP4], the binding result in data set [3] was “binds”.
Consider LAVRRYALGNGYDWS [CPP1], for which, in data set [7], the binding result was “binds”.

Source of the values: patent publication US20100137221A1, “PEPTIDES THAT INTERACT WITH TOPOISOMERASE I AND METHODS THEREOF” (UNIVERSITY UTAH RESEARCH FOUNDATION, priority 2007, published 2010).
